Laboratory results published in US20260042862A1 (AGENCY FOR SCIENCE TECHNOLOGY AND RESEARCH, published 2026).

What was measured:
[1] = target: T1, recombinant human GPC-3 protein (human, UniProt P51654 25-559, limits assumed); experiment: SPR, Biacore T200
T1 construct: also called glypican-3; recombinant GPC-3 protein
Description: Affinity of 24 anti-GPC-3 IgG₁ antibodies was measured via Surface Plasmon Resonance (SPR) analysis using Biacore™ T200 system and shown in Table E3 (below).

[2] = target: T1, recombinant human GPC-3 protein; experiment: binding ELISA with biotin-hGPC-3, EC50 calculated from the curves of FIG. 1A to 1C

Row | Binder | Kd [1] [nM] | koff [1] [s⁻¹] | kon [1] [M⁻¹ s⁻¹] | EC50 [2] [nM]
1 | anti-GPC-3 IgG1 clone 1H10 (antibody, V domains shown, Tested as IgG1; also called monoclonal antibody 1H10) VH: QLQLQESGGGLVQPGGSLRLSCAASGFTFSSYVMSWVRQAPGKGLEWVSTISGSGGSTYYADSVKGRFTISRDNSKNTLYLQMSSLRAEDTAVYYCVMGWYFDLWGRGTL VL: EIVLTQSPGTLSLSPGERATLSCRASQSVSSSYLAWYQQKPGQAPRLLIYDASNRATGIPARFSGSGSGTDFTLTISSLEPEDFAVYYCQQRSNWPPRATFGQGTR | 19.7 | 0.0147 | 748000 | 1.65
2 | anti-GPC-3 IgG1 clone 3C6 (antibody, V domains shown, Tested as IgG1; also called monoclonal antibody 3C6) VH: QVQLQESGGGVVQPGRSLRLSCAASGFTFSSYAMHWVRQAPGKGLEWVAVISYDGSNKYYADSVKGRFTISRDNSKNTLYLQMNSLRAEDTAVYYCAYGRYNWNLYFDYWGQGTL VL: NFMLTQPHSVSESPGKTVTISCTGSSGSIASNYVQWYQQRPGSVPTTVIYEDNQRPSGVPDRFSGSIDSSSNSASLTISGLKTEDEADYYCQSFDSSNYWVFGGGTK | 8.18 | 0.000472 | 57700 | 20.9
3 | anti-GPC-3 IgG1 clone 3C12 (antibody, V domains shown, Tested as IgG1; also called monoclonal antibody 3C12) VH: QVTLKESGPTLVKPTQTLTLTCTFSGFSLSTSGVGVGWIRQPPGKALEWLALIYWNDDKRYSPSLKSRLTITKDTSKNQVVLTMTNMDPVDTATYYCAHSRIAARRVLDYWGQGTL VL: QSVLTQPPSASVAPGKTARITCGGNNIGSKSVHWYQQKPGQSPVLVIYQDTKRPSGIPERFSGSNSGNTATLTISGAQPMDEADYYCQAWYSTIMVFGGGTK | 31.2 | 0.00783 | 251000 | 6.76
4 | anti-GPC-3 IgG1 clone 3D12 (antibody, V domains shown, Tested as IgG1; also called monoclonal antibody 3D12) VH: EVQLVQSGAEVKKPGSSVKVSCKASGGTFSSYAISWVRQAPGQGLEWMGGIIPIFGTANYAQKFQGRVTITADKSTSTAYMELSSLRSEDTAVYYCARGIAARPSYYYYMDVWGKGTT VL: not shown | 32.4 | 0.0035 | 108000 | 45.5
5 | anti-GPC-3 IgG1 clone 1D2 (antibody, V domains shown, Tested as IgG1; also called monoclonal antibody 1D2) VH: EVQLVQSGAEVKKPGSSVKVSCKASGGTFSSYAISWVRQAPGQGLEWMGGIIPIFGTANYAQKFQGRVTITADKSTSTAYMELSSLRSEDTAVYYCAREWQQQLVPLGYMDVWGKGTT VL: ETTLTQSPGTLSLSPGERATLSCRASHSVSSNFLAWYQQKPGQAPRLLIYAASSRTTGVPDRFSGSGSGTDFTLTISRLEPEDSAVYYCQQYGYSPLYTFGQGTK | 4.18 | 0.00257 | 615000 | 1.42
6 | anti-GPC-3 IgG1 clone 2B5 (antibody, V domains shown, Tested as IgG1; also called monoclonal antibody 2B5) VH: QVQLQESGGGVVQPGRSLRLSCAASGFTFSSYAMHWVRQAPGKGLEWVAVISYDGSNKYYADSVKGRFTISRDNSKNTLYLQMNSLRAEDTAVYYCAKEGTYYYDSSGYWDYYYGMDVWGQGTT VL: DVVMTQSPLSLPVTPGEPASISCRSSQSLLDSDGYNFLDWYVQKPGQSPQRLIYLGSIRASGVPDRFSGSGSGTDFTLKISRVEADDVGVYYCMQALQTPWTFGQGTK | 12.4 | 0.0038 | 306000 | 11.9
7 | anti-GPC-3 IgG1 clone 1C4 (antibody, V domains shown, Tested as IgG1; also called monoclonal antibody 1C4) VH: QVQLVQSGGGLVKPGRSLRLSCTASGFTFGDYAMHWVRQAPGKGLEWVAVISYDGSNKYYADSVKGRFTISRDNSKNTLYLQMNSLRAEDTAVYYCARDYGDYYRPYGMDVWGQGTT VL: DIQMTQSPSTLSASVGDRVTITCRASQSISKWLAWYQHKPGKAPKVLIYKASTLQSGVPSRFSGSGSGTEFTLTISSLQPEDFATYYCQQLNSYPLTFGGGTK | 14.1 | 0.0134 | 949000 | 1.95
8 | anti-GPC-3 IgG1 clone 3A9 (antibody, V domains shown, Tested as IgG1; also called monoclonal antibody 3A9) VH: QVQLQQWGAGLLKPSETLSLTCAVYGGSFSGYYWSWIRQPPGKGLEWIGEINHSGSTNYNPSLKSRVTISVDTSKNQFSLKLSSVTAADTAVYYCARLYKRRPFDYWGQGTL VL: not shown | 12.4 | 0.00188 | 151000 | 10.8
9 | anti-GPC-3 IgG1 clone 1A12 (antibody, V domains shown, Tested as IgG1; also called monoclonal antibody 1A12) VH: QVQLQQWGAGLLKPSETLSLTCAAYGGSFSGYYWSWIRQPPGKGLEWIGEINHSGSTNYNPSLKSRVTISVDTSKNQFSLKLSSVTAADTAVYYCARLYKRRPFDYWGQGTL VL: ETTLTQSPGTLSLSPGERATLSCRASQSISSIYLAWYQQKPGQAPRLLIYGASRRATGIPDRFSGSGSGTDFTLTISRLEPEDFAVYYCQQYGSSLRTFGQGTK | 27.6 | 0.00315 | 114000 | 10.2
10 | anti-GPC-3 IgG1 clone 1F4 (antibody, V domains shown, Tested as IgG1; also called monoclonal antibody 1F4) VH: QVQLQQWGAGLLKPSETLSLTCAVYGGSFSGYYWSWIRQPPGKGLEWIGEINHSGSTNYNPSLKSRVTISVDTSKNQFSLKLSSVTVADTAVYYCARLYKRRPFDYWGQGTL VL: ETTLTQSPGTLSLSPGERATLSCRASQSVSSTYLAWYQQKPGQAPRLLIYGASRRATGSPERFSGGGSGTDFTLTISRLEPEDFAVYYCQHYGNSPGTFGQGTK | 7.2 | 0.00129 | 179000 | 10.3
11 | anti-GPC-3 IgG1 clone 1E1 (antibody, V domains shown, Tested as IgG1; also called monoclonal antibody 1E1) VH: QVQLQQWGAGLLKPSETLSLTCAVYGGSFSGYYWSWIRQPPGKGLEWIGEINHSGSTNYNPSLKSRVTISVDTSKNQFSLKLSSVTAADTAVYYCARLYKRRPFDYWGQGTL VL: VTTLTQSPGTLSLSPGERATLSCRASESVSSRYLAWYQQRPGQAPRLLIYGASRRATGSPERFSGGGSGTDFTLTISRLEPEDFAVYYCQHYGNSPGTFGQGTK | 16.2 | 0.00233 | 144000 | 50.1
12 | anti-GPC-3 IgG1 clone 1D3 (antibody, V domains shown, Tested as IgG1; also called monoclonal antibody 1D3) VH: QVQLVQSGAEVKKPGASVKVSCKASGYTFTGYYMHWVRQAPGQGLEWMGWINPNSGGTNYAQNFQGRVTITRDTSASTAYMELSSLRSEDTAVYYCARGSWQTGSFDIWGQGTT VL: SYELTQPPSVSGTPGQSVTISCSGSNSNLGSNYVYWYQVVPGTAPKLVIYRNKYRPPGVPDRFSGSKSGTSASLAISGLRSDDEAEYYCSGWDDSLSGRLFGGGTK | 17.2 | 0.00293 | 170000 | 1.17
13 | anti-GPC-3 IgG1 clone 2F1 (antibody, V domains shown, Tested as IgG1; also called monoclonal antibody 2F1) VH: EVQLVQSGAEVKKPGSSVKVSCKASGGTFSSYAISWVRQAPGQGLEWMGGIIPIFGTANYAQKFQGRVTITADESTSTAYMELSSLRSEDTAVYYCARDSPYYYYMDVWGKGTT VL: DVVMTQSPLFLPVTLGQPASISCRSSQSLVYSDGNTYLSWFQQRPGQSPRRLVYKVSSRDSGVPDRFSGSGSGTDFTLKISRVEAEDVGVYYCMQGTHWPRTFGQGTK | 14.7 | 0.00181 | 124000 | 2.61

Second part, the binder after the results:

Row | Kd [1] [nM] | koff [1] [s⁻¹] | kon [1] [M⁻¹ s⁻¹] | EC50 [2] [nM] | Binder
14 | 44.2 | 0.0137 | 311000 | 4.1 | anti-GPC-3 IgG1 clone 4H1 (antibody, V domains shown, Tested as IgG1; also called monoclonal antibody 4H1) VH: EVQLVQSGGGVVQPGRSLRLSCAASGFTFSSYAMHWVRQAPGKGLEWVAVISYDGSNKYYADSVKGRFTISRDNSKNTLYLQMNSLRAEDTAVYYCARAPGLEDYWGQGTL VL: DIQMTQSPSSLSASVGDRVTITCRASQSISSYLNWYQQKPGTAPKLLIYAASSSLQSGVPSRFSGSGSGTDFALTISSLQPEDFATYYCLQDYNYPLTFGGGTK
15 | 22.9 | 0.00609 | 266000 | 6.61 | anti-GPC-3 IgG1 clone 4A12 (antibody, V domains shown, Tested as IgG1; also called monoclonal antibody 4A12) VH: not shown VL: LPVLTQPPSVSVSPGQTARITCSGYELGDKYAFWYQQKPGQSPVLVIYQDTKRPSGIPERFSGSSSGDTATLIISGTQILDEADYYCQAWDSSTHVVFGGGTK
16 | 12.5 | 0.000946 | 75700 | 15.6 | anti-GPC-3 IgG1 clone 4A5 (antibody, V domains shown, Tested as IgG1; also called monoclonal antibody 4A5) VH: EVQLVQSGAEVKKPGASVKVSCKASGYTFTSYGISWVRQAPGQGLEWMGWISAYNGNTNYAQKLQGRVTMTTDTSTSTAYMELRSLRSDDTAVYYCARDGLSSSWFYYYYGMDVWGQGTT VL: not shown
17 | 10.5 | 0.00172 | 164000 | 5.29 | anti-GPC-3 IgG1 clone 4F9 (antibody, V domains shown, Tested as IgG1; also called monoclonal antibody 4F9) VH: EVQLVQSGAEVKKPGASVKVSCKASGYTFRNYGISWVRQAPGQGLEWMGWISAYNGNTNYAQKLQGRVTMTTDTSTSTAYMELRSLRSDDTAVYYCARADSSSWYVGTYYYYYGMDVWGQGTT VL: not shown
18 | 12.5 | 0.00169 | 135000 | 11 | anti-GPC-3 IgG1 clone 3G12 (antibody, V domains shown, Tested as IgG1; also called monoclonal antibody 3G12) VH: QVQLQQWGAGLLKPSETLSLTCAVYGGSFSGYYWSWIRQPPGKGLEWIGEINHSGSTNYNPSLKSRVTISVDTSKNQFSLKLSSVTAADTAVYYCARLYKRRPFDYWGQGTL VL: ETTLTQSPGTLSLSPGERATLSCRASQSVSSSYLAWYQQKRGQAPRLLIYGASRRATGIPDRFSGSGSGSDFTLTISRLEPEDFAVYYCQQYGSSPSTFGQGTK
19 | 12.9 | 0.00195 | 151000 | 12.3 | anti-GPC-3 IgG1 clone 4G4 (antibody, V domains shown, Tested as IgG1; also called monoclonal antibody 4G4) VH: QVQLQQWGAGLLKPSETLSLTCAVYGGSFSGYYWSWIRQPPGKGLEWIGEINHSGSTNYNPSLKSRVTISVDTSKNQFSLKLSSVTAADTAVYYCARLYKRRPFDYWGQGTL VL: ETTLTQSPGTLSLSPGERATLSCRASQSVSSSYLAWYQQKPGQAPRLLIYNASRRATGIPDRFSGSGSGADFTLTISRLDPEDFAVYFCQQYGSSPQTFGQGTK
20 | 15.5 | 0.00229 | 147000 | 7.59 | anti-GPC-3 IgG1 clone 4G11 (antibody, V domains shown, Tested as IgG1; also called monoclonal antibody 4G11) VH: QVQLQESGPGLVKPSGTLSLTCAVSGGSISSSNWWSWVRQPPGKGLEWIGEIYHSGSTNYNPSLKSRVTISVDKSKNQFSLKLSSVTAADTAVYYCARDTSGVAFDYWGQGTL VL: EIVLTQSPGTLSLSPGERATLSCRASQSVSSSYLAWYQQKPGQAPRLLIYGASSRATGIPDRFSGGGSGTDFTLTISRLEPEDSAVYYCQQYDHSPTFGQGTK
